{"source": "patent US20210309755A1", "about": "(FRED HUTCHINSON CANCER CENTER, published 2021)", "binders": {"B1": {"name": "1A12 anti-MSLN antibody (antibody, human IgG1, V domains shown)", "VH": "EVQLLESGGGLVQPGGSLRLSCAASGLTFRSYAMTWVRQAPGKGLEWVSGISVSGGITYYADSVKGRFTISRDNSKNTLYLQMNSLRAEDTAVYYCAKRGAAVGSFDYWGQGTLVTVSS", "VL": "DIQMTQSPSSLSASVGDRVTITCRSSQGIGSWLAWYQQKPEKAPQSLIYAASSLQSGVPSRFSGSGSGTDFTLTISNLQPEDFATYYCQQYNSYPLTFGGGTKVEIK", "notes": "also called 1A12b; anti-MSLN 1A12 antibody"}}, "key": {"[1]": {"target": "T1, MSLN-Avi ectodomain (human ectodomain of MSLN) (human, UniProt Q13421 296-598, limits assumed)", "T1 construct": "extracellular domain; Expressed in 293-F cells as the fusion sFlag-His-Scn-tev-MSLN-Avi and cleaved with TEV protease; It was the analyte in SPR, and I take it to be the MSLN in the Fab:MSLN crystal complex as well; not shown: Avi tag", "T1 sequence (Q13421 other isoform, or with tags, fused parts or gaps limits assumed)": "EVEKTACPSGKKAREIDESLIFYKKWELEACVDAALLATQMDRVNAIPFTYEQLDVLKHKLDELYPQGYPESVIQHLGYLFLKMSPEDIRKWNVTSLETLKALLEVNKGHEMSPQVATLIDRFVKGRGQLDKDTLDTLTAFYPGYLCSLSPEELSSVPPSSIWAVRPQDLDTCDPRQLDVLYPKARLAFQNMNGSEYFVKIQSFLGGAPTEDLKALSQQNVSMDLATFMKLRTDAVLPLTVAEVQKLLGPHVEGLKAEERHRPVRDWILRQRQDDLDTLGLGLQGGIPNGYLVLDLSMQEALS", "experiment": "written beside the structure of the 1A12 Fab on MSLN; no assay named on the sheet (the value is the rounded SPR fit of FIG. 7A)", "protocol": "(§1) Surface plasmon resonance (SPR) experiments were performed at 25° C. on a BIACORE™ T100 instrument (GE Healthcare) with a Series S CM4 chip using a running buffer of 10 mM HEPES, pH 7.4, 150 mM NaCl, 3 mM EDTA, 0.05% surfactant P20 with 0.1 mg/mL bovine serum albumin. Goat anti-human Fc antibody (Jackson Labs: 109005098) was amine coupled to the CM4 chip (˜2800 RUs) and each antibody was then captured on a single flow cell of immobilized goat anti-human Fc. The purified MSLN-Avi (discussed above) was run as a concentration series at 50 uL/min over the captured antibodies and the goat anti-human Fc reference surface. CM4 chip was regenerated with 10 mM glycine, pH1.5 for 30 sec at 50 uL/min. Data was double referenced and analyzed in BiaEval 2.0.4."}, "[2]": {"target": "T1, MSLN-Avi ectodomain (human ectodomain …)", "experiment": "SPR, Biacore T100, 25 C; antibody captured on goat anti-human Fc (57.1 +/- 0.8 RUs), MSLN-Avi as analyte 2.0-1000 nM in duplicate, 1:1 fit", "protocol": "as §1"}}}
{"binder": "B1", "values": [{"measurement": "Kd", "setting": "[1]", "value": 64, "unit": "nM"}, {"measurement": "Kd", "setting": "[2]", "value": 64.4, "unit": "nM"}, {"measurement": "koff", "setting": "[2]", "value": 0.00458, "unit": "s⁻¹"}, {"measurement": "kon", "setting": "[2]", "value": 71100, "unit": "M⁻¹ s⁻¹"}]}
